Source: publication PMC4318572 (Journal of biomolecular screening, 2014)

B1: GST–Fyn SH3–strep (domain or fragment)
chain: not shown

Tests used:
Experiment in all cases: AlphaScreen or HTRF
4R1N Tau = 4R1N Tau (human, UniProt P10636-7 1-412)
4R0N Tau = 4R0N Tau (human, UniProt P10636-6 1-383)
P203A Tau = P203A Tau (human, UniProt P10636-8 1-441, P203A)
[1] = target: Tau with P232 mutated to alanine (human, UniProt P10636-8 1-441, P232 (alanine scan))
3R0N Tau = 3R0N Tau (human, UniProt P10636-2 1-352)
P233A Tau = P233A Tau (human, UniProt P10636-8 1-441, P233A)
P236A Tau = P236A Tau (human, UniProt P10636-8 1-441, P236A)
3R2N Tau = 3R2N Tau (human, UniProt P10636-5 1-410)
3R1N Tau = 3R1N Tau (human, UniProt P10636-4 1-381)
GST–Fyn SH3–strep = target: B1

Measured: binding result

B1
not listed: GST–Fyn SH3–strep
binds: all other assays above

YGRKKRRQRRRRSRTPSLPTPPTREPKK [Tat-tagged peptide spanning the 5th and 6th PXXP motifs in Tau]
binds: GST–Fyn SH3–strep
